Measured values from publication PMC2887963 (Nucleic Acids Research, 2010).

T1: (His)6-RcsB (Escherichia coli, UniProt P0DMC7 1-216)
T1 sequence: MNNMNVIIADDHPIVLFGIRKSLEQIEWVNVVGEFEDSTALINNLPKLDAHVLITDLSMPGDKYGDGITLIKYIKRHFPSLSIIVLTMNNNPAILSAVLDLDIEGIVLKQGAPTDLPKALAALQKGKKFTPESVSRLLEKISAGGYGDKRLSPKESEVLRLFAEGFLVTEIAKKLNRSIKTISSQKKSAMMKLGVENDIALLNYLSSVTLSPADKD

T2: (His)6-RcsB (Escherichia coli, UniProt P0DMC7 1-216)
T2 sequence: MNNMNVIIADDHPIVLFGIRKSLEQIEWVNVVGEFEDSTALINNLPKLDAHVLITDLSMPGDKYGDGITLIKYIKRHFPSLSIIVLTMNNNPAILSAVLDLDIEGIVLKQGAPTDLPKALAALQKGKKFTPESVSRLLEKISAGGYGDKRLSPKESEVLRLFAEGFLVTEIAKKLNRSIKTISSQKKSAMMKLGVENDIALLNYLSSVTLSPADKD

T3: MBP-RcsB (Escherichia coli (MG1655 strain), UniProt P0DMC7 1-216)
T3 sequence: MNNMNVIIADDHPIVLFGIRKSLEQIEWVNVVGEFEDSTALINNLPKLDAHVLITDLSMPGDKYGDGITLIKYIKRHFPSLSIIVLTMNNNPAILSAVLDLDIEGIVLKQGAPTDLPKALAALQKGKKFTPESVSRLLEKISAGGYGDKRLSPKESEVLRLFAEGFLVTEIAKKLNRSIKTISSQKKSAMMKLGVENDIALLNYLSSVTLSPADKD


How the values were obtained:
(His)6-RcsB [1] = target: T1, (His)6-RcsB; experiment: EMSA
[2] = target: the molecule itself
(His)6-RcsB [3] = target: T2, (His)6-RcsB; experiment: native gel or EMSA
MBP-RcsB = target: T3, MBP-RcsB; experiment: native gel or EMSA

Binder	binding result ((His)6-RcsB [1])	stoichiometry N [2]	binding result ((His)6-RcsB [3])	binding result (MBP-RcsB)
gadA promoter -101 to +24 (dsDNA) DNA 1: GTTTATATTATAAAAAGTCGTTTTTCTGCTTAGGATTTTGTTATTTAAATTAAGCCTGTAATGCCTTGCTTCCATTGCGGATAAATCCTACTTTTTTATTGCCTTCAAATAAATTTAAGGAGTTC DNA 2: GAACTCCTTAAATTTATTTGAAGGCAATAAAAAAGTAGGATTTATCCGCAATGGAAGCAAGGCATTACAGGCTTAATTTAAATAACAAAATCCTAAGCAGAAAAACGACTTTTTATAATATAAAC	binds	–	–	–
MBP-GadE (natural protein) MIFLMTKDSFLLQGFWQLKDNHEMIKINSLSEIKKVGNKPFKVIIDTYHNHILDEEAIKFLEKLDAERIIVLAPYHISKLKAKAPIYFVSRKESIKNLLEITYGKHLPHKNSQLCFSHNQFKIMQLILKNKNESNITSTLNISQQTLKIQKFNIMYKLKLRRMSDIVTLGITSYF	–	2	binds	binds
(His)6-GadE (natural protein) MIFLMTKDSFLLQGFWQLKDNHEMIKINSLSEIKKVGNKPFKVIIDTYHNHILDEEAIKFLEKLDAERIIVLAPYHISKLKAKAPIYFVSRKESIKNLLEITYGKHLPHKNSQLCFSHNQFKIMQLILKNKNESNITSTLNISQQTLKIQKFNIMYKLKLRRMSDIVTLGITSYF	–	–	binds	binds
